By Kd is commonly meant the free concentration of one partner at which half of the binding sites on the other are occupied at equilibrium, for simple one-to-one binding. Low values mean tighter binding, high ones weaker binding. A word on the koff: it is a measure of how fast the partners let go of each other. High values mean fast dissociation, low ones slow dissociation. What is called kon is a measure of how fast the partners come together. Read a low kon as slower complex formation. In general, t½ refers to the time in which the quantity being followed falls by half. Higher therefore signals slow decline.

Experimental findings from patent publication US20250043017A1 (Regeneron, published 2025) are described below.

For experiment [1], the target named is T1, human 4-1BB on cells (human, UniProt Q07011 24-255).
T1 construct: whole, on cells; also called h41BB; CD137
T1 sequence (Q07011 24-255): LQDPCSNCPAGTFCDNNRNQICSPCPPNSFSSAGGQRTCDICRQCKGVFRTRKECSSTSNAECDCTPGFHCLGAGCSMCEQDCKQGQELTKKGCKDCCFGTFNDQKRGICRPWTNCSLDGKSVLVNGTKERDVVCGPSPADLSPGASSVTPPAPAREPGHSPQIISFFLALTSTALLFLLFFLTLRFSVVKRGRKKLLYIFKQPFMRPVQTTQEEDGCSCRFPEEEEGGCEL
Briefly: flow cytometry, Jurkat/NFkB-Luc/h41BB cells. On the procedure:
Binding was detected by using a labeled secondary antibody and measuring fluorescence on a flow cytometer.
Assay set up: OVCAR-3+/−PD-L1 cells were lifted with trypsin, washed and resuspended in stain buffer (2% FBS in PBS). OVCAR-3 and Jurkat/NFkB-Luc/h41BB cells were counted and added to wells at 200,000 cells/well. Cells, in wells of 96-well round bottom plates, were pelleted by centrifugation and resuspended in 150 ul stain buffer (PBS containing 2% FBS). Plates were once again centrifuged and subsequently 100 ul of stain buffer alone or stain buffer containing antibody, titrated from 200 nM to 12 pM in a 9-point 1:4 dose titration were added to cells. Cells and antibodies were incubated for 30 min on ice and then washed in stain buffer. Cells were resuspended in 2 μg/ml allophycocyanin (APC) conjugated goat-anti human secondary antibody. A secondary antibody alone control was included. Cells and secondary were incubated for 30 min on ice and then washed in stain buffer. After a subsequent wash with PBS (containing no FBS), cells were resuspended in viability dye (reconstituted in DMSO according to the manufacturer's protocol and diluted 1:1000 in PBS) and incubated for 20 min on ice. They were then washed with stain buffer and resuspended in 2% PFA for 30 min at 4 C. After washing they were filtered and analyzed by flow cytometry. EC₅₀ values of the antibodies were determined from a 4 parameter logistic equation over a 9-point dose response curve (including secondary only control) using GraphPad Prism software.
(In general: A flow cytometer gives signals particle by particle.)

For experiment [2], the target named is T1, human 4-1BB on cells. Kind of experiment: cell-based or functional assay.
The target in experiment [3] is T2, human 4-1BB expressed with a C-terminal myc-myc-hexahistidine tag (h4-1BB.mmH) (human).
T2 construct: also called hCD137 (4-1BB) mmH
T2 sequence (chain, as listed by the source limits assumed): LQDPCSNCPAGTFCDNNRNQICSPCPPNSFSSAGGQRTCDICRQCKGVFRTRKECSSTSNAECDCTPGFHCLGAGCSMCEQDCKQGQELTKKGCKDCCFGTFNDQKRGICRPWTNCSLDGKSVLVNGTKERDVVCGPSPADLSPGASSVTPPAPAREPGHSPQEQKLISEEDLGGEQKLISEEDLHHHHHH
Kind of experiment: SPR Biacore, 25 C, antibody captured via anti-hFc, h4-1BB.mmH as analyte. On the procedure:
The CM5 Biacore sensor surface was derivatized by amine coupling with a monoclonal mouse anti-human Fc antibody. All Biacore binding studies were performed in a buffer composed of 0.01M HEPES pH 7.4, 0.15M NaCl, 3 mM EDTA, 0.05% v/v Surfactant P20 (HBS-EP running buffer). […] Antibody-reagent association was monitored for 5 minutes while dissociation in HBS-EP running buffer was monitored for 10 minutes. At the end of each cycle, the antibody capture surface was regenerated using a 10 sec injection of 20 mM phosphoric acid. All binding kinetics experiments were performed at 25° C.
Data analysis: The specific SPR-Biacore sensorgrams were obtained by a double referencing procedure. The double referencing was performed by first subtracting the signal of each injection over a reference surface (anti-hFc or anti-mFc) from the signal over the experimental surface (anti-hFc-captured anti-PD-L1×4-1BB antibodies) thereby removing contributions from refractive index changes. In addition, running buffer injections were performed to allow subtraction of the signal changes resulting from the dissociation of captured antibodies or antigens from the coupled anti-hFc or anti-mFc surface. Kinetic association (kₐ) and dissociation (kd) rate constants were determined by fitting the real-time sensorgrams to a 1:1 binding model using Scrubber v2.0c curve fitting software. Binding dissociation equilibrium constants (KD) and dissociative half-lives (t½) were calculated from the kinetic rate constants as: […]

Experiment [4] has as its target T2, human 4-1BB expressed with a C-terminal …. Kind of experiment: blocking ELISA, 0.25 nM h4-1BB-mmh binding to coated 6His-Flag-h4-1BBL. On the procedure: The 4-1BB blocking assay was performed similarly to the PD-L1 blocking assay. 6His-Flag-h4-1BBL protein ([…] in PBS) was coated onto a 96-well microtiter plate overnight at 4 °C. […] The plates were developed using TMB substrate solution (BD Biosciences) and the absorbance at 450 nm was measured on a SpectraMax I3x plate reader.
Binding data were analyzed using a sigmoidal (four-parameter logistic) dose-response model with GraphPad Prism™ software. […] The percent blocking of tested antibodies at the highest tested concentration of 100 nM was calculated based on the formula shown below: […]
(In general: ELISA stands for enzyme-linked immunosorbent assay.)

The target of experiment [5] is T1, human 4-1BB on cells. Kind of experiment: cell-based or functional assay. The source holds these as a separate data set.

B1: REGN6189 (bispecific antibody, human IgG4 S228P, kappa)
heavy 1: EVQLVESGGGLVQPGRSLRLSCAASGFTFDDYALHWVRQAPGKGLEWVSGISWTGGTIDYADSVKGRFTISRDNAKNSLYLQMSSLRTEDTAIYYCTRDIRGNWKYGGWFDPWGQGTLVTVSSASTKGPSVFPLAPCSRSTSESTAALGCLVKDYFPEPVTVSWNSGALTSGVHTFPAVLQSSGLYSLSSVVTVPSSSLGTKTYTCNVDHKPSNTKVDKRVESKYGPPCPPCPAPPVAGPSVFLFPPKPKDTLMISRTPEVTCVVVDVSQEDPEVQFNWYVDGVEVHNAKTKPREEQFNSTYRVVSVLTVLHQDWLNGKEYKCKVSNKGLPSSIEKTISKAKGQPREPQVYTLPPSQEEMTKNQVSLTCLVKGFYPSDIAVEWESNGQPENNYKTTPPVLDSDGSFFLYSRLTVDKSRWQEGNVFSCSVMHEALHNHYTQKSLSLSLGK
heavy 2: QVQLVESGGDVVQPGRSLRLSCTASGFTFSSFGMHWVRQAPGKGLEWVTFLSYDGSYKYYADSVKGRFTISRDNSKNTLYLQMNSLRAEDTAIFYCARDWLDYWGQGTLVTVSSASTKGPSVFPLAPCSRSTSESTAALGCLVKDYFPEPVTVSWNSGALTSGVHTFPAVLQSSGLYSLSSVVTVPSSSLGTKTYTCNVDHKPSNTKVDKRVESKYGPPCPPCPAPPVAGPSVFLFPPKPKDTLMISRTPEVTCVVVDVSQEDPEVQFNWYVDGVEVHNAKTKPREEQFNSTYRVVSVLTVLHQDWLNGKEYKCKVSNKGLPSSIEKTISKAKGQPREPQVYTLPPSQEEMTKNQVSLTCLVKGFYPSDIAVEWESNGQPENNYKTTPPVLDSDGSFFLYSRLTVDKSRWQEGNVFSCSVMHEALHNRFTQKSLSLSPGK
light: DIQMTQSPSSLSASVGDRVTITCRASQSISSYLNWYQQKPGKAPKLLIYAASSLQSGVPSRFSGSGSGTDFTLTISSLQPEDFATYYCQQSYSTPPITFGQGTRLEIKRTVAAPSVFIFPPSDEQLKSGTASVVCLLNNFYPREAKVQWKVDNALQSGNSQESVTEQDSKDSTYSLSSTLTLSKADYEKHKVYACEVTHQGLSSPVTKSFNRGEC
notes: common light chain 1-39; also called R6189; PD-L1x4-1BB REGN6189
Turning to B1, in experiment [1], the “Fold change (max MFI over secondary antibody alone)” value stood at 23.8 fold and the “Max [gMFI]” value turned out to be 54000 gMFI. In experiment [2], the “NFkB-luciferase EC50, Jurkat/NFkB-Luc/h41BB + HEK293/hCD20/hPSMA/hPD-L1” value came out at 7.03 nM; the “NFkB-luciferase MAX (RLU), Jurkat/NFkB-Luc/h41BB + HEK293/hCD20/hPSMA” value amounted to 175000 RLU; the “NFkB-luciferase MAX (RLU), Jurkat/NFkB-Luc/h41BB + HEK293/hCD20/hPSMA/hPD-L1” value stood at 1.18e+06 RLU. In addition, in experiment [3], the “270 nM h4-1BB-mmH Bind (RU)” value came to 25.4 RU, the dissociation constant (Kd) came out at 61.6 nM, the dissociation rate constant (koff) came to 0.0315 s⁻¹ and the kon came out at 511000 M⁻¹ s⁻¹. In experiment [3], this molecule registered a t½ of 24 s. Besides, the “% Blocking at 100 nM mAb” value in experiment [4] turned out to be 64%. Further, in experiment [5], the “IL2 release EC50, human CD3+ T cells + HEK293/hCD20/hPSMA/hPD-L1 + CD20xCD3” value came out at 1.09 nM; the “IL2 release MAX, human CD3+ T cells + HEK293/hCD20/hPSMA + CD20xCD3” value worked out at 8.7 pg/mL; the “IL2 release MAX, human CD3+ T cells + HEK293/hCD20/hPSMA, no CD20xCD3” value was found to be 10.1 pg/mL; the “IL2 release MAX, human CD3+ T cells + HEK293/hCD20/hPSMA/hPD-L1 + CD20xCD3” value is 83.1 pg/mL. In experiment [5], the “IL2 release MAX, human CD3+ T cells + HEK293/hCD20/hPSMA/hPD-L1, no CD20xCD3” value came to 10.1 pg/mL.

B2: REGN6190 (bispecific antibody, human IgG4 S228P, kappa)
heavy 1: EVQLVESGGGLVQPGRSLRLSCAASGFTFDDYALHWVRQAPGKGLEWVSGISWTGGTIDYADSVKGRFTISRDNAKNSLYLQMSSLRTEDTAIYYCTRDIRGNWKYGGWFDPWGQGTLVTVSSASTKGPSVFPLAPCSRSTSESTAALGCLVKDYFPEPVTVSWNSGALTSGVHTFPAVLQSSGLYSLSSVVTVPSSSLGTKTYTCNVDHKPSNTKVDKRVESKYGPPCPPCPAPPVAGPSVFLFPPKPKDTLMISRTPEVTCVVVDVSQEDPEVQFNWYVDGVEVHNAKTKPREEQFNSTYRVVSVLTVLHQDWLNGKEYKCKVSNKGLPSSIEKTISKAKGQPREPQVYTLPPSQEEMTKNQVSLTCLVKGFYPSDIAVEWESNGQPENNYKTTPPVLDSDGSFFLYSRLTVDKSRWQEGNVFSCSVMHEALHNHYTQKSLSLSLGK
heavy 2: EVQLVESGGGLVQPGGSLRLSCEASGFTFSSYEMNWVRQAPGKGLEWISHISSSGSSIYYADSVQGRFTISRDKAKNSLYLQMNSLRAEDTAVYYCTREGFEYGSSSGLKYYYYGLDVWGQGTTVTVSSASTKGPSVFPLAPCSRSTSESTAALGCLVKDYFPEPVTVSWNSGALTSGVHTFPAVLQSSGLYSLSSVVTVPSSSLGTKTYTCNVDHKPSNTKVDKRVESKYGPPCPPCPAPPVAGPSVFLFPPKPKDTLMISRTPEVTCVVVDVSQEDPEVQFNWYVDGVEVHNAKTKPREEQFNSTYRVVSVLTVLHQDWLNGKEYKCKVSNKGLPSSIEKTISKAKGQPREPQVYTLPPSQEEMTKNQVSLTCLVKGFYPSDIAVEWESNGQPENNYKTTPPVLDSDGSFFLYSRLTVDKSRWQEGNVFSCSVMHEALHNRFTQKSLSLSPGK
light: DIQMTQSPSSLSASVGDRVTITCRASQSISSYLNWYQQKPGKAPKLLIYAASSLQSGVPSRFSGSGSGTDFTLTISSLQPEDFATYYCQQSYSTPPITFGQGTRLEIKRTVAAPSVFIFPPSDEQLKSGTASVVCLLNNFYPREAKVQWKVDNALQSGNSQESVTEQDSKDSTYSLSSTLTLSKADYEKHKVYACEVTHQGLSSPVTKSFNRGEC
notes: common light chain 1-39; also called R6190; PD-L1x4-1BB REGN6190
Regarding B2, in experiment [1], the “Fold change (max MFI over secondary antibody alone)” value came out at 36.2 fold and the “Max [gMFI]” value amounted to 82000 gMFI. In experiment [2], the “NFkB-luciferase EC50, Jurkat/NFkB-Luc/h41BB + HEK293/hCD20/hPSMA/hPD-L1” value was 4.48 nM; the “NFkB-luciferase MAX (RLU), Jurkat/NFkB-Luc/h41BB + HEK293/hCD20/hPSMA” value was found to be 120000 RLU; the “NFkB-luciferase MAX (RLU), Jurkat/NFkB-Luc/h41BB + HEK293/hCD20/hPSMA/hPD-L1” value turned out to be 973000 RLU. Moreover, in experiment [3], the “270 nM h4-1BB-mmH Bind (RU)” value was found to be 30.7 RU, binding was characterised by a dissociation constant (Kd) of 30.3 nM, the off-rate (koff) came to 0.021 s⁻¹ and the kon came out at 692000 M⁻¹ s⁻¹. This molecule also came in with a t½ in experiment [3] of 30 s. Also, the “% Blocking at 100 nM mAb” value in experiment [4] worked out at 85%. In addition, in experiment [5], the “IL2 release EC50, human CD3+ T cells + HEK293/hCD20/hPSMA/hPD-L1 + CD20xCD3” value is 0.663 nM; the “IL2 release MAX, human CD3+ T cells + HEK293/hCD20/hPSMA + CD20xCD3” value came out at 9.6 pg/mL; the “IL2 release MAX, human CD3+ T cells + HEK293/hCD20/hPSMA, no CD20xCD3” value stood at 8.9 pg/mL; the “IL2 release MAX, human CD3+ T cells + HEK293/hCD20/hPSMA/hPD-L1 + CD20xCD3” value worked out at 52.5 pg/mL. For the same molecule, the “IL2 release MAX, human CD3+ T cells + HEK293/hCD20/hPSMA/hPD-L1, no CD20xCD3” value in experiment [5] is 8.9 pg/mL.
